We go through twelve substances from PMC4709591.

In test [1] the target is human toll-like receptor 5 (TLR5) (human) (UniProt O60602).
Test [2] has the same target. The source holds these as a separate data set.
For test [3] the target is unchanged. This is another data set of the same source.
Test [4] shares this target. This is another data set of the same source.

Sequence of UniProt O60602 (O60602 21-858): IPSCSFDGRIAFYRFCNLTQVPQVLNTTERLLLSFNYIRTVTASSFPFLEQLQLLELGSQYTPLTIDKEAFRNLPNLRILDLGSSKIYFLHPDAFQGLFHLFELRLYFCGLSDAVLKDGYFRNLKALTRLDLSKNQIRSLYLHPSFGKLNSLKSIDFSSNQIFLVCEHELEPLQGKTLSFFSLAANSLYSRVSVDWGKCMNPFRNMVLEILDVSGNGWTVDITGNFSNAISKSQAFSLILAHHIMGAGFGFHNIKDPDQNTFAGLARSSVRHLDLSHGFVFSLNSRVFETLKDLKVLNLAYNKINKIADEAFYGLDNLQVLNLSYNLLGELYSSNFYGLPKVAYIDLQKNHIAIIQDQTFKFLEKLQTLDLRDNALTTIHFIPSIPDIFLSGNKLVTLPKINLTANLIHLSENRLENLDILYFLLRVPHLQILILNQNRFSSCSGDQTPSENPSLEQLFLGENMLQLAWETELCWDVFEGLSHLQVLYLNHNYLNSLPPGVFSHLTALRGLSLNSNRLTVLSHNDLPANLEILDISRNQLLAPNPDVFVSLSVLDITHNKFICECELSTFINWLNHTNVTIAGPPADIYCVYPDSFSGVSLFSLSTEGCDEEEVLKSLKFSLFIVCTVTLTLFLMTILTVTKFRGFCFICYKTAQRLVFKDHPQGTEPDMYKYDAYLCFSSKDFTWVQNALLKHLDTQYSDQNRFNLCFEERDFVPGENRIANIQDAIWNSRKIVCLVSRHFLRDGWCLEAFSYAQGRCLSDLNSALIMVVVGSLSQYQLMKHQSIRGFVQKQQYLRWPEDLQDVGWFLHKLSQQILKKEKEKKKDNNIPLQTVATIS

With “flagellin (FliC) from S. typhimurium SL1344, full-length (from UniProt P06179 1-495) (natural protein)”, in test [1], the EC50 of bioactivity (SEAP reporter in HEK-Blue-hTLR5 cells) was found to be 1.3 pM.

Substance “flagellin mutant SS1 (L12-N484 replaced with cysteine) (from UniProt P06179 1-495) (natural protein)” showed an EC50 of bioactivity (cell-based TLR5 stimulation assay); decreased against native flagellin in test [2] of less than 10 pM. The same measure, in the same setting: the value for “flagellin mutant SS2 (Q22-Q473 replaced with cysteine) (from UniProt P06179 1-495) (natural protein)” was less than 10 pM.

“flagellin mutant SS3 (Q22-T477 replaced with cysteine) (from UniProt P06179 1-495) (natural protein)”: in test [2], the EC50 of bioactivity (cell-based TLR5 stimulation assay); decreased against native flagellin is less than 10 pM.

On to “flagellin mutant SS4 (G35-S457 replaced with cysteine) (from UniProt P06179 1-495) (natural protein)”, for which the EC50 of bioactivity (cell-based TLR5 stimulation assay); decreased against native flagellin in test [2] was less than 10 pM.

With “flagellin mutant SS5 (L36-D456 replaced with cysteine) (from UniProt P06179 1-495) (natural protein)”, in test [2], the EC50 of bioactivity (cell-based TLR5 stimulation assay); decreased against native flagellin is less than 10 pM. As for “flagellin mutant SS6 (A51-R451 replaced with cysteine) (from UniProt P06179 1-495) (natural protein)”, in test [2], the EC50 of bioactivity (cell-based TLR5 stimulation assay); decreased against native flagellin is less than 10 pM. In turn, “flagellin without the C-terminal D0 domain (S452-R495) (from UniProt P06179 1-451) (domain or fragment)” had an EC50 of bioactivity (SEAP reporter in HEK-Blue-hTLR5 cells) in test [1] of 80 pM. The substance “flagellin-HBc VLP conjugate with 2 flagellins on a VLP (1:40 reactant ratio) (from UniProt P06179 1-495) (complex)” returned a bioactivity against free flagellin (SEAP reporter in HEK-Blue-hTLR5 cells) in test [3] of 7 fold. Further, in test [4], the potency of TLR5 stimulation, based on flagellin concentration (SEAP reporter in HEK-Blue-hTLR5 cells) turned out to be 1 pM.

“flagellin-HBc VLP conjugate with 10 flagellins on a VLP (1:10 reactant ratio) (from UniProt P06179 1-495) (complex)” displayed a bioactivity against free flagellin (SEAP reporter in HEK-Blue-hTLR5 cells) in test [3] of 7 fold. In test [3], “flagellin-HBc VLP conjugate with 33 flagellins on a VLP (1:2 reactant ratio) (from UniProt P06179 1-495) (complex)” showed a bioactivity against free flagellin (SEAP reporter in HEK-Blue-hTLR5 cells) of 7 fold. Further, the potency of TLR5 stimulation, based on flagellin concentration (SEAP reporter in HEK-Blue-hTLR5 cells) in test [4] amounted to 1 pM. With “soluble SS5 HIII flagellin (L36C-D456C; HPG1+A2I+M310I+M466I) (from UniProt P06179 1-495) (natural protein)”, the minimum flagellin concentration stimulating the TLR5 receptors (SEAP reporter in HEK-Blue-hTLR5 cells) in test [3] worked out at 0.2 pM.
